Results: patent US20260250338A1

Assays:
[1] = molecular target: full length human CD16b stably expressed on transduced WT Jurkat cells (human) (UniProt O75015); assay: flow cytometry on CD16b-transduced WT Jurkat cells stained with anti-CD16 (axis printed VL1-A :: CD16-eFluor 450-A)
[2] = molecular target: HER2 on SKOV3 cells (human) (UniProt P04626); assay: flow cytometry on SKOV3 cells, anti-HER2 PerCP/Cy5.5 at 1:20
[3] = molecular target: HER2 on JIMT-1 cells (human) (UniProt P04626); assay: flow cytometry on JIMT-1 cells, anti-HER2 PerCP/Cy5.5 at 1:20
[4] = molecular target: HER2 on HT29 cells (human) (UniProt P04626); assay: flow cytometry on HT29 cells, anti-HER2 PerCP/Cy5.5 at 1:20
[5] = molecular target: HER2 on MDA-MB-175 cells (human) (UniProt P04626); assay: flow cytometry on MDA-MB-175 cells, anti-HER2 PerCP/Cy5.5 at 1:20
[6] = molecular target: HER2 on MDA-MB-231 cells (human) (UniProt P04626); assay: flow cytometry on MDA-MB-231 cells, anti-HER2 PerCP/Cy5.5 at 1:20
[7] = molecular target: HER2 on SKOV3 cells (human) (UniProt P04626); assay: flow cytometry on SKOV3 cells, isotype ctrl PerCP/Cy5.5
[8] = molecular target: HER2 on JIMT-1 cells (human) (UniProt P04626); assay: flow cytometry on JIMT-1 cells, isotype ctrl PerCP/Cy5.5
[9] = molecular target: HER2 on HT29 cells (human) (UniProt P04626); assay: flow cytometry on HT29 cells, isotype ctrl PerCP/Cy5.5
[10] = molecular target: HER2 on MDA-MB-175 cells (human) (UniProt P04626); assay: flow cytometry on MDA-MB-175 cells, isotype ctrl PerCP/Cy5.5
[11] = molecular target: HER2 on MDA-MB-231 cells (human) (UniProt P04626); assay: flow cytometry on MDA-MB-231 cells, isotype ctrl PerCP/Cy5.5

Chain of full length human CD16b stably expressed on transduced WT Jurkat cells (human) (O75015 17-200): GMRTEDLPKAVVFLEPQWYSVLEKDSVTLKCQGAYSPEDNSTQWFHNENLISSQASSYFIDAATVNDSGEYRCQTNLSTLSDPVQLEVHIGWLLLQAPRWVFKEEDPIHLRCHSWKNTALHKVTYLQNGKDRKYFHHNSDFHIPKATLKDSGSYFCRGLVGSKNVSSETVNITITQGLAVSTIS

## CD16-BV421 (BV421 mouse anti-human CD16 clone 3G8, BD Biosciences) (antibody)
[1]
  CD16 gate (percent of cells): 100

## HER2 (Anti-Her2 PerCP/Cy5.5, BioLegend #324416) (antibody)
[2]
  Median : BL3-A: 25400
[3]
  Median : BL3-A: 10300
[4]
  Median : BL3-A: 2230
[5]
  Median : BL3-A: 6860
[6]
  Median : BL3-A: 1240

## iso ctrl (Isotype ctrl PerCP/Cy5.5 antibody)
[7]
  Median : BL3-A: 491
[8]
  Median : BL3-A: 306
[9]
  Median : BL3-A: 361
[10]
  Median : BL3-A: 331
[11]
  Median : BL3-A: 520
